Measured values: the supplement of paper PMC9170038

Tested on: MS2 coat protein
Test: apparent KD of MS2 coat protein; designed switch direction (-1 OFF switch, 1 ON switch): -1; higher = weaker reporter binding
Procedure, shortened: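 SNAP-549-labelled MS2 coat protein was titrated, doubling from 0.7 or 1.5 nM to 3 µM, over designed RNA switches transcribed on Illumina chips by stalled E. coli RNA polymerase. Runs were done without input, with 200 uM small-molecule ligand, or with an oligonucleotide input. Apparent KD is the per-design median over clusters of curve-fitted normalised fluorescence.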

[1] = input ligand: microRNA oligo, concentration not stated
[2] = Eterna round: R95, input ligand: microRNA oligo, concentration not stated
[3] = Eterna round: R95, input ligand: FMN 200 uM
[4] = Eterna round: R95, input ligand: none

Sequence | apparent KD of MS2 coat protein (input ligand: FMN 200 uM) [nM] | apparent KD of MS2 coat protein (input ligand: none) [nM] | apparent KD of MS2 coat protein [1] [nM] | apparent KD of MS2 coat protein [2] [nM] | apparent KD of MS2 coat protein [3] [nM] | apparent KD of MS2 coat protein [4] [nM]
UAAUUUUUAGUAAGGAUAUCGGUCCCAAGGGACAACGAGAAGGUACAUGAGGAUCACCCAUGUGAUAAAAGAAU [Mod of Zala 5 - Jieux - Brourd's Mod of Exclusion 4] (Eterna round: R97, puzzle: Brourd's mod of Exclusion 4) | 204 | 28.8 | – | – | – | –
UACAAGCUUUGGCGAUCCUACAUGAGGAUCACCCAUGUGGGCCCGCCAGAGGCGGGCCCAUUUGCCCGUCUUGUGAA [Energy optimization 2] (Eterna round: R97, puzzle: Sensor, turn-off variant 1) | 16.3 | 16.3 | – | – | – | –
UACAUGAGGAUCACCCAUGUUUUGUCGUGUAUGGUACCCAUCUAGGAUAUCGUGUUAUUGGACCACGAGAAGGAGAGUAUCAAU [Excl-NG3-LRO01] (Eterna round: R96, puzzle: Exclusion NG 3) | 19.2 | 24.1 | 18.1 | – | – | –
UACAUGAGGAUCACCCAUGUUUUGUCGUGUAUGGUAUUUAUCUAGGAUAUCAAUGUAGUUAUUUAUGAGAAGGAGAAUAUUAAU [JMF's solution 41] (Eterna round: R96, puzzle: Exclusion NG 3) | 43 | 50.8 | 37.5 | – | – | –
UACAUGAGGAUCACCCAUGUUUUGUCGUGUAUGGUAUUUAUCUAGGAUAUCAUUUAAUUUAUUUAUGAGAAGGAGAAUAUUAAU [JMF's solution 99] (Eterna round: R96, puzzle: Exclusion NG 3) | 29.8 | 31.1 | 28 | – | – | –
UACAUGAGGAUCACCCAUGUUUUGUCGUGUUUGGUACCCGUUUAGGAUAUCGUGUUAUUGUAUCGCGAGAAGGAGAGUAUCUUU [Excl-NG3-LRO09] (Eterna round: R96, puzzle: Exclusion NG 3) | 30.9 | 27 | 27.1 | – | – | –
UACCCUAAGGUGAGGAUAUCUAGGCCUAGAGGUCAAGAGAAGGCACAUGAGGAUCACCCAUGUAGUUGAUACGA [BmEX4 B.25] (Eterna round: R97, puzzle: Brourd's mod of Exclusion 4) | 77.4 | 21.9 | – | – | – | –
UACGUGUCAGGAUAUGCGUUGGUACAGAAGUAUGGCCAACGGCAGAAGGGACAUGAGGAUCACCCAUGUCGUCG [Eternabot (L1) Solution 60] (Eterna round: R97, puzzle: Exclusion 4) | 139 | 26.8 | – | – | – | –
UACUAUAAGGAGGAUAUCGUAUCGGAGACGAUACGAGAAGGCUUAACAUGAGGAUCACCCAUGUUCUUCAAUAU [Mat - Exclusion 6 - Eli Mod - D91] (puzzle: Exclusion 6) | – | – | – | 14.8 | – | –
UACUGGACAGGAUAUGUUCUUGAGCACUUGAGGAUCACCCAAGUCAUCAAGAACUCAGGCACAGAAGGGUUUAUGA [salish99_ex5_r4_004] (Eterna round: R97, puzzle: Exclusion 5) | 22 | 15.4 | – | – | – | –
UACUUGUUAGGAUAUCUUACAUUUGCAUUAUAGCAACUAUUGGAGAAGGGACAUGAGGAUCACCCAUGUUUGGG [tap-tap-tappy16] (Eterna round: R97, puzzle: Exclusion 4) | 602 | 486 | – | – | – | –
UAGAAUCGAGGAUAUACAUGAGGAUCACCCAUGUGUUGCCGCAUGAUAUGAUCGUCAGGUAGAAGGCGAUUAUA [Exclusion 3 - Mod of Jieux's Gilly Gone Silly 23 v.6] (puzzle: Exclusion 3) | – | – | – | 83.4 | 37.6 | 82.9
UAGACUGAAGGAUAUACGUGGUAUCCGGCUAAUCAAGGUUCACAUGAGGAUCACCCAUGUAGAAGGUCAGCUCG [Eternabot (L2) Solution 18] (Eterna round: R97, puzzle: Exclusion 2) | 359 | 58.4 | – | – | – | –
UAGAUACAUGAGGAUCACCCAUGUGAGGAUAUGAGAAUUAUAUUAAAUGAAUGUAGUAUCAGAAGGCACAAAGG [JR_Ex1_Sub049] (Eterna round: R97, puzzle: Exclusion 1) | 197 | 130 | – | – | – | –
UAGAUUCAUUCCUCUAUAAACAUGAGGAUCACCCAUGUAAGUGAGGAUAUAGUAGGAGUUGUAUACUAGAAGGCACUUAGUUUU [JR_ExcNG3_Sub049] (Eterna round: R96, puzzle: Exclusion NG 3) | 49.4 | 13.3 | 10.7 | – | – | –
UAGUACAUCUAUGGGAGUAACAUGAGGAUCACCCAUGUAUGUCUUGUUUUUUGUUCGUCAUAGGCCUUUUGAUUGGC [JR_SV3TOV1_Sub028] (puzzle: Sensor v3, turn-off variant 1) | – | – | – | 228 | 107 | 113
UAUAAGAUAGGAUAUACAGGCCCGUCUUCAUAUCGAUCCCGACAUGAGGAUCACCCAUGUAGAAGGAUCGUAUA [Mod 22 - Jieux - Exclusion 2] (Eterna round: R97, puzzle: Exclusion 2) | 15 | 8.25 | – | – | – | –
UAUAUAUAGUAAGGAUAUGUAAUUAUUUUAUAAACAGAAGGUACUGACAUGAGGAUCACCCAUGUUUUAGUGUGGGCAUGUAGA [JMF's solution 5] (Eterna round: R96, puzzle: Exclusion NG 1) | – | – | 65.7 | – | – | –
UAUAUAUAGUAAGGAUAUGUAAUUAUUUUAUCAACAGAAGGUACUGACAUGAGGAUCACCCAUGUUUUAGUGUGGGCAUGUAGA [JMF's solution 49] (Eterna round: R96, puzzle: Exclusion NG 1) | – | – | 61.7 | – | – | –
UAUAUAUAGUAAGGAUAUGUAUAUAUUGUAUAAACAGAAGGUACUGACAUGAGGAUCACCCAUGUUUUAGUGUGGGCAUGUAGA [JMF's solution 61] (Eterna round: R96, puzzle: Exclusion NG 1) | – | – | 57.5 | – | – | –
UAUAUAUAGUAAGGAUAUGUAUUUAUCUUAUAAACAGAAGGUACUGACAUGAGGAUCACCCAUGUUUUAGUGUGGGCAUGUAGA [JMF's solution 17] (Eterna round: R96, puzzle: Exclusion NG 1) | 59.9 | 41.8 | 39 | – | – | –
UAUAUAUAGUAAGGAUAUGUAUUUAUUUUAUUAACAGAAGGUACUGACAUGAGGAUCACCCAUGUUUUAGUGUGGGCAUGUAGA [JMF's solution 25] (Eterna round: R96, puzzle: Exclusion NG 1) | – | – | 77.7 | – | – | –
